From PMC10865538 (BMC Infectious Diseases, 2024)

Target: T1, recombinant wild-type RBD-Fc (Sino Biological, 40,592-V02H) (SARS-CoV-2, UniProt P0DTC2)
T1 construct: also called Fc-tagged SARS-CoV-2 RBD; source: bought: Sino Biological
Assay: BLI
Details: both partners purified

B1: sdAb39 (VHH)
VHH: EVQLVESGGGLVQPGGSLRLSCAASGNTSTRHPMSWVRQAPGKGLELVASIGRGEITYYADSVKGRFTISRDNSKNTLYLQMNSLRAEDTAVYYCAAFVDFLSRHNSRRPYPHGYWGQGTLVTVSS
B1 was tested. Which Kd did it give?
The Kd was 56 nM.
